Data taken from patent CN115677858A (HEFEI HANKEMAB BIOTECHNOLOGY CO LTD; ANHUI ANKE …, dated 2023).

T1: 猴CD137胞外段 (SEQ ID No.20) (monkey, UniProt Q07011 24-186 (human entry))
T1 construct: Expressed in HEK293; no tag is stated; also called 猴CD137抗原
T1 chain: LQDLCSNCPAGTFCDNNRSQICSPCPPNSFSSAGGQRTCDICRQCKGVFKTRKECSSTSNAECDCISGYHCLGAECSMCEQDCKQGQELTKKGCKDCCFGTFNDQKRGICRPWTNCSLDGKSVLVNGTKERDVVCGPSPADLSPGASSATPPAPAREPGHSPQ


Key:
[1] = target: T2, 人CD137全长 (SEQ ID No.19)，表达于细胞 (human, UniProt Q07011 24-255); assay: flow cytometry (FACS) on CHO-K1/hCD137 cells, goat anti-human FITC; antibody at 0.342935528 nM
T2 construct: The full-length entry was transfected into CHO-K1 cells for FACS and into HEK293 cells for the reporter assay; also called CHO-K1/hCD137; 细胞表面人CD137
T2 sequence (Q07011 24-255 limits assumed): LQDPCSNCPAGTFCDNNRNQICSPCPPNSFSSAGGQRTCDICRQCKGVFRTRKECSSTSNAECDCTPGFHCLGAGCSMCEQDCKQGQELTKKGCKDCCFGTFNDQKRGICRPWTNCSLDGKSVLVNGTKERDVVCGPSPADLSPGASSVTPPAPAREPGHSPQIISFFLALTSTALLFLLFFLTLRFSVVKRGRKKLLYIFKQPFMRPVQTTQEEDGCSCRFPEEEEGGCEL

[2] = target: T2, 人CD137全长 (SEQ ID No.19)，表达于细胞; assay: flow cytometry (FACS) on CHO-K1/hCD137 cells, goat anti-human FITC; antibody at 83.33333333 nM
[3] = target: T2, 人CD137全长 (SEQ ID No.19)，表达于细胞; assay: flow cytometry (FACS) on CHO-K1/hCD137 cells, goat anti-human FITC; antibody at 1.028806584 nM
[4] = target: T3, 人PD-L1胞外段 (SEQ ID No.22 第19-238位) (human, UniProt Q9NZQ7 19-238); assay: ELISA, human PD-L1 extracellular domain coated, goat anti-human HRP
T3 construct: also called 人PD-L1抗原
T3 sequence (Q9NZQ7 19-238): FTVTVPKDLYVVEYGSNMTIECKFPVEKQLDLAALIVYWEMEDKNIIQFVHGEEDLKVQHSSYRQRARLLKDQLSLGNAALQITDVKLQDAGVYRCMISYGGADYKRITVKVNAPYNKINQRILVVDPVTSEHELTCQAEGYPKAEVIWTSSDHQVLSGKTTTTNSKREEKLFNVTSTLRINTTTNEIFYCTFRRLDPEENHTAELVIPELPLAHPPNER

[5] = target: T2, 人CD137全长 (SEQ ID No.19)，表达于细胞; assay: flow cytometry (FACS) on CHO-K1/hCD137 cells, goat anti-human FITC; antibody at 3.086419753 nM
[6] = target: T2, 人CD137全长 (SEQ ID No.19)，表达于细胞; assay: flow cytometry (FACS) on CHO-K1/hCD137 cells, goat anti-human FITC; 4-parameter logistic fit
[7] = target: T2, 人CD137全长 (SEQ ID No.19)，表达于细胞; assay: flow cytometry (FACS) on CHO-K1/hCD137 cells, goat anti-human FITC; antibody at 250 nM
[8] = target: T2, 人CD137全长 (SEQ ID No.19)，表达于细胞; assay: flow cytometry (FACS) on CHO-K1/hCD137 cells, goat anti-human FITC; antibody at 27.77777778 nM
[9] = target: T4, 人PD-L1胞外段 (SEQ ID No.22 第19-238位)，带His标签 (human, UniProt Q9NZQ7 19-238); assay: bridging ELISA: human PD-L1-His coated, bispecific antibody, then human CD137-mouse Fc, goat anti-mouse HRP
T4 construct: It may be the same preparation as m7; not shown: His tag
T4 sequence (Q9NZQ7 19-238): as above

[10] = target: T5, 人PD-L1全长 (SEQ ID No.22)，表达于CHO-K1细胞 (human, UniProt Q9NZQ7 19-290); assay: flow cytometry (FACS) on CHO-K1/hPD-L1 cells, goat anti-human FITC
T5 construct: The full-length entry was transfected; also called CHO-K1/hPD-L1; 细胞表面人PD-L1
T5 sequence (Q9NZQ7 19-290 limits assumed): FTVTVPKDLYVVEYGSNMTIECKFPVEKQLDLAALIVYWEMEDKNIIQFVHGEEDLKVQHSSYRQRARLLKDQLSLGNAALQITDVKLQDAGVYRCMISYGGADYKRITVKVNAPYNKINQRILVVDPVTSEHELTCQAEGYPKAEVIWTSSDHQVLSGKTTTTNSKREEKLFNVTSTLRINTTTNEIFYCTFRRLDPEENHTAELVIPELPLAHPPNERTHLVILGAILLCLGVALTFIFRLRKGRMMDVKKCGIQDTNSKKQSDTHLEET

[11] = target: T2, 人CD137全长 (SEQ ID No.19)，表达于细胞; assay: flow cytometry (FACS) on CHO-K1/hCD137 cells, goat anti-human FITC; antibody at 9.259259259 nM
猴CD137胞外段 (SEQ ID No.20) = target: T1, 猴CD137胞外段 (SEQ ID No.20); assay: ELISA, monkey CD137 extracellular domain coated, goat anti-human HRP
猴PD-L1胞外段 (SEQ ID No.23) = target: T6, 猴PD-L1胞外段 (SEQ ID No.23) (monkey, UniProt Q9NZQ7 19-238 (human entry)); assay: ELISA, monkey PD-L1 extracellular domain coated, goat anti-human HRP
T6 construct: Expressed in HEK293; no tag is stated; also called 猴PD-L1抗原
T6 sequence (Q9NZQ7 other isoform, or with tags, fused parts or gaps): as the sequence (Q9NZQ7 19-238) above, with A33T, A34S, S62N, R68Q, Q82R, F173L, T185A, T192I, H215L counted along it

Binder	FACS signal (read-out name not given) [1]	FACS signal (read-out name not given) [2]	FACS signal (read-out name not given) [3]	binding result [4]	FACS signal (read-out name not given) [5]	EC50 [6] [µM]	FACS signal (read-out name not given) [7]	FACS signal (read-out name not given) [8]	binding result [9]	binding result [10]	FACS signal (read-out name not given) [11]	binding result (猴CD137胞外段 (SEQ ID No.20))	binding result (猴PD-L1胞外段 (SEQ ID No.23))
抗人PD-L1/CD137双特异性抗体 结构B (1st scFv-L1-Fc-L2-2nd Fab) (bispecific antibody, human IgG4 S228P, kappa, F234A L235A, Anti-CD137 scFv at the N-terminus of human IgG4 Fc, anti-PD-L1 Fab at its C-terminus; also called B结构) heavy: not shown light: DIQMTQSPSTLSASVGDRVTITCQSSQNVYSNNRLSWYQQKPGKAPKLLIYWTSFLASGVPSRFSGSGSGTEFTLTISSLQPDDFATYYCAGGYSGNLYTFGQGTKLEIKRTVAAPSVFIFPPSDEQLKSGTASVVCLLNNFYPREAKVQWKVDNALQSGNSQESVTEQDSKDSTYSLSSTLTLSKADYEKHKVYACEVTHQGLSSPVTKSFNRGEC	2680	16100	3020	binds	4096	0.0144	16200	12100	binds	binds	8000		
抗人PD-L1/CD137双特异性抗体 结构D6 (D2的突变分子) (bispecific antibody, human IgG4 S228P, kappa, F234A L235A, Mutant of D2; also called D6结构) heavy: not shown light: DIQMTQSPSTLSASVGDRVTITCQSSQNVYSNNRLSWYQQKPGKAPKLLIYWTSFLASGVPSRFSGSGSGTEFTLTISSLQPDDFATYYCAGGYSGNLYTFGQGTKLEIKRTVAAPSVFIFPPSDEQLKSGTASVVCLLNNFYPREAKVQWKVDNALQSGNSQESVTEQDSKDSTYSLSSTLTLSKADYEKHKVYACEVTHQGLSSPVTKSFNRGEC	2620	15400	2770	binds	3930	0.0164	15300	11100	binds	binds	7030	binds	binds
抗人PD-L1/CD137双特异性抗体 结构D3 (D1的突变分子) (bispecific antibody, human IgG4 S228P, kappa, F234A L235A, Mutant of D1; also called D3结构) heavy: not shown light: DIQMTQSPSTLSASVGDRVTITCQSSQNVYSNNRLSWYQQKPGKAPKLLIYWTSFLASGVPSRFSGSGSGTEFTLTISSLQPDDFATYYCAGGYSGNLYTFGQGTKLEIKRTVAAPSVFIFPPSDEQLKSGTASVVCLLNNFYPREAKVQWKVDNALQSGNSQESVTEQDSKDSTYSLSSTLTLSKADYEKHKVYACEVTHQGLSSPVTKSFNRGEC	2590	16700	2620		2920	0.0124	16600	14600			7390		
